Measured values as given in PMC3491057, “Proliferating Cell Nuclear Antigen (PCNA) Interactions in Solution Studied by NMR” (PLoS ONE, 2012).
No end group written: not given here.

Key:
Conditions in all cases: both partners purified
[1] = biological target: Proliferating Cell Nuclear Antigen (PCNA), human (human); experiment: NMR titration; 280 µM U-2H,15N-PCNA titrated with a 7.5 mM stock of ING1^22 up to a 7.8-fold molar excess; CSP of H44 fitted to one set of sites; PBS pH 7.0, 35°C
[2] = biological target: T1, Proliferating Cell Nuclear Antigen (PCNA), human (human, homotrimeric ring; GlySerHis tag remnant before Met1 left out; 2H/15N(/13C) labelled for NMR, natural abundance for ITC); experiment: ITC; PCNA (11.2–13.4 µM protomers) in the cell titrated with peptide (117 µM p21^20, 363 p21^12); PBS pH 7.0, 30°C; single set of identical sites
T1 sequence (chain, as listed by the source): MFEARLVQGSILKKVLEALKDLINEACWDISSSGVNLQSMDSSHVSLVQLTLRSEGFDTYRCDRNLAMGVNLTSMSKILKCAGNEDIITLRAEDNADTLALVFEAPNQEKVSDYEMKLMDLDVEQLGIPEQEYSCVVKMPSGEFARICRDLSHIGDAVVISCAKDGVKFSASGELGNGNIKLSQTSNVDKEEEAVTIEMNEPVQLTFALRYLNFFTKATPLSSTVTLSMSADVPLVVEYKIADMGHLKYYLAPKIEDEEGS

[3] = biological target: T1, Proliferating Cell Nuclear Antigen …; experiment: ITC; PCNA (11.2–13.4 µM protomers) in the cell titrated with peptide (117 µM p21^20, 363 p21^12); PBS pH 7.0, 35°C; single set of identical sites

Sequence of Proliferating Cell Nuclear Antigen (PCNA), human (human) (chain, as listed by the source): as above

KD with CSPmax set equal to the CSP of PCNA bound to p21^20 [1] [µM]	Kd [1] [µM]	Kd [2] [µM]	stoichiometry N [2]	Kd [3] [µM]	Binder
12500 ± 500	2000 ± 700				PANGEQLHLVNYVEDTLDSIES (not fully specified) [ING1 PIP-box fragment 4-25 (ING1^22)]
		0.64	1 p21 ligand per PCNA protomer	1.1	KRRQTSMTDFYH (source: lyophilized peptide) [p21 fragment 141-152 (p21^12), shorter PIP-box peptide of the Cyclin-dependent kinase inhibitor 1]
